Measurements from patent publication US11780927B2, “Anti-CD40 antibodies for use in prevention of graft rejection” (NOVARTIS AG, priority 2018, dated 2023).
Where “and” joins values, the source holds several entries; their conditions need not be identical. Identical values can stand only once.

Experiments:
Single dose PK/PD study = type: in vivo, cynomolgus monkeys
Experimental: Single dose pharmacokinetic/pharmacodynamic (PK/PD) studies utilized biologics-treatment naive cynomolgus monkeys (Macaca fascicularis) between 7.5-8.5 years old (6.5±2.6 kg) and captive-bred from Philippines (Siconbrec, Makati City, Philippines). Animal handling, care, drug treatments and blood sampling are performed according to the Swiss Federal Law for animal protection (animal licenses BS #1900, BS #1495). For the recall immunization experiments, we utilized animals from a toxicology study conducted at Covance Laboratories GmbH, Muenster, Germany, (manuscript in preparation). The study was performed according to an authorized study protocol and local standard operating procedures in strict compliance with national legal regulations on animal welfare law and accepted animal welfare standards.
In the PK study, CFZ533 was administered to three animals at calculated single doses of 16.2 (5532), 18.5 (5531) and 20 (5530) mg/kg. […] KLH specific IgM/IgG titers were determined with sandwich ELISA using cynomolgus monkey anti-KLH IgM/IgG reference serum as standard. […]
FIG. 9A. Serum concentrations of CFZ533 in three cynomolgus monkeys after single dose administration at calculated doses of 16.2 (5532), 18.5 (5531) and 20 (5530) mg/kg intravenously. […]

[1] = Plasma concentrations in solid organ transplantation patients; type: in vivo, human
Experimental: Without wishing to be bound by theory, the inventors have identified that sustained plasma concentrations at least about 40 μg/mL of the CFZ533 antibody was necessary to block the CD40-CD40L pathway in target tissues in solid organ transplantation patients. Thus, with a dosing regimen providing, throughout the entire treatment period, sustained plasma concentrations of at least 40 μg/mL and up to 400 μg/mL, in situations where CD40 expression in affected tissues would be enhanced (severity of the condition, activation of the immune system post transplantation), is considered for a therapeutic effect.

PBMCs = conditions: Rhesus
RAJI B cells = experiment: Complement-dependent cytotoxicity with rabbit complement; type: cell-based; conditions: 2 hours
Experimental: See supplementary material for detailed methods. Briefly, the ability of CFZ533 to mediated depletion of CD20^pos B cells was monitored in human whole blood over a period of three days in comparison to the B cell depleting antibody Rituximab. For CDC, CFZ533 or Rituximab were incubated with RAJI B cells in the presence or absence of rabbit complement and cell lysis was assessed by luminescence.
B cells numbers were determined based on CD45pos and CD19pos events falling within lymphocyte FSC (forward-scattered light)/SSC (side-scattered light) gate. Results for individual antibody concentrations were calculated as percent remaining B cells with reference to untreated samples and graphed as a function of log-transformed antibody concentration (adjusted to 100% and shown as a dotted line). Data represent the mean and SD of eight independent donors. […] Concentration dependent killing of the Raji cells was analyzed after 2 hours, where the viability of the cells was measured by determination of the ATP concentration in each well using luciferase. Results are presented as isotype-control normalized relative luciferase units (RLU) as a function of log-transformed antibody concentration.

[2] = 13-week GLP toxicity study
platelet aggregation = experiment: Platelet function and blood hemostasis; type: cell-based
[3] = 26-week chronic toxicity study
[4] = system: T cell-dependent antibody responses (TDAR); experiment: Recall T cell-dependent antibody response to KLH; type: in vivo, rhesus monkeys; conditions: at second KLH immunization, single 10 mg/kg i.v.
Experimental: Monkeys were immunized with KLH three times (the first was about 3 weeks prior to dosing, the second was 2 weeks after mAb1 administration, and the third was after complete wash-out of mAb1). […] Once mAb1 was cleared, all animals mounted a full memory antibody response to the third KLH.
In the PK study, CFZ533 was administered to three animals at calculated single doses of 16.2 (5532), 18.5 (5531) and 20 (5530) mg/kg. Blood was sampled for analyses of CFZ533 serum concentrations, numbers of peripheral T and B lymphocytes, and CD40 occupancy on peripheral B cells by CFZ533. For recall TDAR experiments, animals were immunized with keyhole limpet hemocyanin (KLH) in Alum on study days 8 (priming) and 43 (recall; during CFZ533 treatment) respectively. Serum was sampled one day before and 7, 14 and 21 days after priming and recall immunizations. KLH specific IgM/IgG titers were determined with sandwich ELISA using cynomolgus monkey anti-KLH IgM/IgG reference serum as standard. PK assessment was performed as described above. See supplementary material for additional details on the PK and TDAR experiments.
Arrows below the x-axis highlight primary and secondary KLH immunizations. The timing of a single dose of 10 mg/kg CFZ533 is shown above. The asterisks indicate time points at which anti-KLH IgG and/or CFZ533 levels were measured. FIG. 10B. […]

In the case of “CFZ533: human anti-CD40 IgG1 monoclonal antibody with Fc-silencing N297A mutation; heavy chain SEQ ID NO: 9, light chain SEQ ID NO: 10”, the “inflection point in PK profiles (drop of CD40 saturation)” value (Single dose PK/PD study; serum concentration-time profiles, non-human primates) is reported as 10 to 20 µg/mL, the “Depletion of peripheral blood B cells” value (Single dose PK/PD study; single intravenous dose 16.2, 18.5 and 20 mg/kg) is reported as “did not deplete peripheral blood B cells” and the “Safety and tolerability at maximum plasma concentration” value ([1]; about 400 μg/ml at steady state) is reported as “generally safe and well tolerated”. For the same substance, the Thromboembolic events ([1]; human, in vivo) was “No thromboembolic events were observed”, the “observed maximum plasma concentration at steady state” value ([1]; human, in vivo) was “about 400 μg/ml” and the “sustained plasma concentration necessary to block the CD40-CD40L pathway in target tissues” value ([1]; solid organ transplantation patients) was “at least 40 μg/mL”. For the same substance, the “Inhibition of rCD154-induced proliferation (IC50 PBMCs)” value (PBMCs) was 0.03 µg/mL and 0.026 ± 0.017 µg/mL, the “Complement-dependent cytotoxicity (CDC) of Raji B cells” value (RAJI B cells) was “unable to mediate complement-dependent cytotoxicity” and the Increased lymphoid cellularity ([2]; weekly dosing at 10, 50 and 150 mg/kg) was 5/22. The “No Observed Adverse Effect Level (NOAEL)” value ([2]; weekly dosing, rhesus monkey) was 10 mg/kg, the Platelet aggregation responses (platelet aggregation) was “does not induce platelet aggregation responses” and the “serum concentration with incomplete or no suppression of GCs” value ([3]; 1 mg/kg/week subcutaneously, 26 weeks) was “below 20 μg/mL”. The NOAEL ([3]; 26-week, cynomolgus monkeys) was 150 mg/kg, the “Cmax,ss at NOAEL versus expected human Cmax” value ([3]; proposed intravenous regimen) was 24 fold and the “CFZ533 concentration required for complete suppression of recall TDAR” value ([4]; 10 mg/kg) was > 40 µg/mL and 30 to 40 µg/mL. For the same substance, the “CFZ533 concentration required for complete suppression of recall TDAR” value ([4]; listed as mAb1, 10 mg/kg) was over 40 µg/mL.
